Laboratory results from the supplement of paper PMC10567573.

B1: PRKX (parent)
chain: KLLVVDRTRRLGNMKNGANDVKHH

Variants of: B1
Experiment: protein stability index of a GFP-peptide fusion (GPS, HEK-293T) (PSI 1-6); higher = more stable
Details: c terminus: a fixed tail appended
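Note: lentivirally expressed fusions sorted by FACS into six bins by GFP to DsRed ratio, PSI derived from sequencing read proportions per bin multiplied by bin number.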

Q: For KLLIVDRTRRLGNMKNGANDVKHH, which protein stability index is on record?
A: The protein stability index was 2.46.

Q: With KLLGVDRTRRLGNMKNGANDVKHH as the variant, how does the protein stability index read?
A: The protein stability index was 3.32.

Q: Which protein stability index does the source give for KLLDVDRTRRLGNMKNGANDVKHH here?
A: Its protein stability index is 3.77.

Q: For KLLRVDRTRRLGNMKNGANDVKHH, which protein stability index is on record?
A: The protein stability index was 2.86.

Q: With KLLYVDRTRRLGNMKNGANDVKHH as the variant, how does the protein stability index read?
A: The protein stability index was 3.32.

Q: Which protein stability index does the source give for KLLEVDRTRRLGNMKNGANDVKHH here?
A: The protein stability index was 3.46.

Q: Which protein stability index does the source give for KLLCVDRTRRLGNMKNGANDVKHH here?
A: The protein stability index was 3.17.

Q: Which protein stability index does the source give for KLLQVDRTRRLGNMKNGANDVKHH here?
A: Its protein stability index is 3.19.

Q: With KLLLVDRTRRLGNMKNGANDVKHH as the variant, how does the protein stability index read?
A: The protein stability index was 3.

Q: Which protein stability index does the source give for KLLFVDRTRRLGNMKNGANDVKHH here?
A: The protein stability index was 2.61.

Q: For KLLSVDRTRRLGNMKNGANDVKHH, which protein stability index is on record?
A: Its protein stability index is 3.65.

Q: Which protein stability index does the source give for KLLAVDRTRRLGNMKNGANDVKHH here?
A: Its protein stability index is 3.31.

Q: Which protein stability index does the source give for KLLNVDRTRRLGNMKNGANDVKHH here?
A: The protein stability index was 3.6.

Q: Which protein stability index does the source give for KLLPVDRTRRLGNMKNGANDVKHH here?
A: Its protein stability index is 3.87.

Q: With KLLTVDRTRRLGNMKNGANDVKHH as the variant, how does the protein stability index read?
A: The protein stability index was 3.4.

Q: Which protein stability index does the source give for KLLKVDRTRRLGNMKNGANDVKHH here?
A: The protein stability index was 2.7.

Q: With KLLWVDRTRRLGNMKNGANDVKHH as the variant, how does the protein stability index read?
A: The protein stability index was 2.66.

Q: For KLLHVDRTRRLGNMKNGANDVKHH, which protein stability index is on record?
A: The protein stability index was 3.62.

Q: With HLLVVDRTRRLGNMKNGANDVKHH as the variant, how does the protein stability index read?
A: The protein stability index was 2.98.

Q: For WLLVVDRTRRLGNMKNGANDVKHH, which protein stability index is on record?
A: Its protein stability index is 1.55.

Q: For SLLVVDRTRRLGNMKNGANDVKHH, which protein stability index is on record?
A: The protein stability index was 3.51.

Q: With ELLVVDRTRRLGNMKNGANDVKHH as the variant, how does the protein stability index read?
A: Its protein stability index is 2.94.

Q: Which protein stability index does the source give for RLLVVDRTRRLGNMKNGANDVKHH here?
A: Its protein stability index is 2.52.

Q: Which protein stability index does the source give for QLLVVDRTRRLGNMKNGANDVKHH here?
A: The protein stability index was 3.37.

Q: For TLLVVDRTRRLGNMKNGANDVKHH, which protein stability index is on record?
A: The protein stability index was 3.45.

Q: For LLLVVDRTRRLGNMKNGANDVKHH, which protein stability index is on record?
A: The protein stability index was 1.86.

Q: Which protein stability index does the source give for ALLVVDRTRRLGNMKNGANDVKHH here?
A: Its protein stability index is 2.33.

Q: Which protein stability index does the source give for FLLVVDRTRRLGNMKNGANDVKHH here?
A: The protein stability index was 1.44.

Q: With ILLVVDRTRRLGNMKNGANDVKHH as the variant, how does the protein stability index read?
A: Its protein stability index is 1.78.

Q: With DLLVVDRTRRLGNMKNGANDVKHH as the variant, how does the protein stability index read?
A: The protein stability index was 3.82.

Q: With NLLVVDRTRRLGNMKNGANDVKHH as the variant, how does the protein stability index read?
A: Its protein stability index is 3.45.

Q: With CLLVVDRTRRLGNMKNGANDVKHH as the variant, how does the protein stability index read?
A: The protein stability index was 1.85.

Q: For YLLVVDRTRRLGNMKNGANDVKHH, which protein stability index is on record?
A: The protein stability index was 2.29.

Q: Which protein stability index does the source give for GLLVVDRTRRLGNMKNGANDVKHH here?
A: The protein stability index was 3.38.

Q: Which protein stability index does the source give for MLLVVDRTRRLGNMKNGANDVKHH here?
A: The protein stability index was 1.85.

Q: Which protein stability index does the source give for PLLVVDRTRRLGNMKNGANDVKHH here?
A: Its protein stability index is 3.63.

Q: For VLLVVDRTRRLGNMKNGANDVKHH, which protein stability index is on record?
A: Its protein stability index is 1.82.

Q: For KLLVVWRTRRLGNMKNGANDVKHH, which protein stability index is on record?
A: The protein stability index was 1.69.

Q: With KLLVVCRTRRLGNMKNGANDVKHH as the variant, how does the protein stability index read?
A: Its protein stability index is 2.01.

Q: Which protein stability index does the source give for KLLVVTRTRRLGNMKNGANDVKHH here?
A: The protein stability index was 2.52.

Q: Which protein stability index does the source give for KLLVVERTRRLGNMKNGANDVKHH here?
A: Its protein stability index is 2.94.

Q: With KLLVVVRTRRLGNMKNGANDVKHH as the variant, how does the protein stability index read?
A: Its protein stability index is 2.26.

Q: For KLLVVSRTRRLGNMKNGANDVKHH, which protein stability index is on record?
A: The protein stability index was 2.81.

Q: With KLLVVGRTRRLGNMKNGANDVKHH as the variant, how does the protein stability index read?
A: The protein stability index was 2.29.

Q: Which protein stability index does the source give for KLLVVIRTRRLGNMKNGANDVKHH here?
A: The protein stability index was 2.87.

Q: With KLLVVMRTRRLGNMKNGANDVKHH as the variant, how does the protein stability index read?
A: The protein stability index was 1.97.

Q: For KLLVVNRTRRLGNMKNGANDVKHH, which protein stability index is on record?
A: The protein stability index was 2.95.

Q: Which protein stability index does the source give for KLLVVRRTRRLGNMKNGANDVKHH here?
A: Its protein stability index is 2.14.

Q: For KLLVVKRTRRLGNMKNGANDVKHH, which protein stability index is on record?
A: The protein stability index was 2.55.

Q: With KLLVVARTRRLGNMKNGANDVKHH as the variant, how does the protein stability index read?
A: The protein stability index was 2.19.

Q: Which protein stability index does the source give for KLLVVFRTRRLGNMKNGANDVKHH here?
A: Its protein stability index is 3.18.

Q: For KLLVVHRTRRLGNMKNGANDVKHH, which protein stability index is on record?
A: The protein stability index was 2.82.

Q: Which protein stability index does the source give for KLLVVLRTRRLGNMKNGANDVKHH here?
A: Its protein stability index is 1.98.

Q: For KLLVVQRTRRLGNMKNGANDVKHH, which protein stability index is on record?
A: The protein stability index was 2.03.

Q: For KLLVVYRTRRLGNMKNGANDVKHH, which protein stability index is on record?
A: The protein stability index was 2.29.

Q: With KLLVVPRTRRLGNMKNGANDVKHH as the variant, how does the protein stability index read?
A: The protein stability index was 2.94.

Q: With KELVVDRTRRLGNMKNGANDVKHH as the variant, how does the protein stability index read?
A: The protein stability index was 5.03.

Q: For KQLVVDRTRRLGNMKNGANDVKHH, which protein stability index is on record?
A: Its protein stability index is 4.39.

Q: Which protein stability index does the source give for KNLVVDRTRRLGNMKNGANDVKHH here?
A: The protein stability index was 4.03.

Q: With KKLVVDRTRRLGNMKNGANDVKHH as the variant, how does the protein stability index read?
A: The protein stability index was 3.99.

Q: For KALVVDRTRRLGNMKNGANDVKHH, which protein stability index is on record?
A: Its protein stability index is 3.84.

Q: Which protein stability index does the source give for KRLVVDRTRRLGNMKNGANDVKHH here?
A: Its protein stability index is 3.69.

Q: Which protein stability index does the source give for KMLVVDRTRRLGNMKNGANDVKHH here?
A: The protein stability index was 3.5.

Q: For KDLVVDRTRRLGNMKNGANDVKHH, which protein stability index is on record?
A: The protein stability index was 4.03.

Q: With KVLVVDRTRRLGNMKNGANDVKHH as the variant, how does the protein stability index read?
A: The protein stability index was 3.52.

Q: Which protein stability index does the source give for KCLVVDRTRRLGNMKNGANDVKHH here?
A: The protein stability index was 3.57.

Q: For KGLVVDRTRRLGNMKNGANDVKHH, which protein stability index is on record?
A: The protein stability index was 4.1.

Q: With KILVVDRTRRLGNMKNGANDVKHH as the variant, how does the protein stability index read?
A: The protein stability index was 2.99.

Q: For KYLVVDRTRRLGNMKNGANDVKHH, which protein stability index is on record?
A: Its protein stability index is 3.04.

Q: With KFLVVDRTRRLGNMKNGANDVKHH as the variant, how does the protein stability index read?
A: Its protein stability index is 3.22.

Q: For KTLVVDRTRRLGNMKNGANDVKHH, which protein stability index is on record?
A: The protein stability index was 3.61.

Q: With KHLVVDRTRRLGNMKNGANDVKHH as the variant, how does the protein stability index read?
A: The protein stability index was 3.68.

Q: Which protein stability index does the source give for KSLVVDRTRRLGNMKNGANDVKHH here?
A: The protein stability index was 4.13.

Q: With KPLVVDRTRRLGNMKNGANDVKHH as the variant, how does the protein stability index read?
A: Its protein stability index is 4.29.

Q: Which protein stability index does the source give for KWLVVDRTRRLGNMKNGANDVKHH here?
A: The protein stability index was 2.87.

Q: With KLLVVDCTRRLGNMKNGANDVKHH as the variant, how does the protein stability index read?
A: The protein stability index was 2.6.

Q: Which protein stability index does the source give for KLLVVDWTRRLGNMKNGANDVKHH here?
A: Its protein stability index is 2.5.

Q: Which protein stability index does the source give for KLLVVDKTRRLGNMKNGANDVKHH here?
A: The protein stability index was 2.56.

Q: Which protein stability index does the source give for KLLVVDGTRRLGNMKNGANDVKHH here?
A: Its protein stability index is 3.22.

Q: With KLLVVDTTRRLGNMKNGANDVKHH as the variant, how does the protein stability index read?
A: Its protein stability index is 3.18.

Q: Which protein stability index does the source give for KLLVVDYTRRLGNMKNGANDVKHH here?
A: Its protein stability index is 2.5.

Q: With KLLVVDHTRRLGNMKNGANDVKHH as the variant, how does the protein stability index read?
A: The protein stability index was 3.03.

Q: Which protein stability index does the source give for KLLVVDLTRRLGNMKNGANDVKHH here?
A: Its protein stability index is 2.92.

Q: For KLLVVDDTRRLGNMKNGANDVKHH, which protein stability index is on record?
A: Its protein stability index is 4.05.

Q: For KLLVVDSTRRLGNMKNGANDVKHH, which protein stability index is on record?
A: The protein stability index was 3.21.

Q: For KLLVVDETRRLGNMKNGANDVKHH, which protein stability index is on record?
A: The protein stability index was 3.7.

Q: Which protein stability index does the source give for KLLVVDMTRRLGNMKNGANDVKHH here?
A: The protein stability index was 2.43.

Q: Which protein stability index does the source give for KLLVVDATRRLGNMKNGANDVKHH here?
A: Its protein stability index is 3.79.

Q: For KLLVVDQTRRLGNMKNGANDVKHH, which protein stability index is on record?
A: Its protein stability index is 3.97.

Q: For KLLVVDVTRRLGNMKNGANDVKHH, which protein stability index is on record?
A: Its protein stability index is 2.81.

Q: Which protein stability index does the source give for KLLVVDNTRRLGNMKNGANDVKHH here?
A: Its protein stability index is 3.25.

Q: Which protein stability index does the source give for KLLVVDPTRRLGNMKNGANDVKHH here?
A: The protein stability index was 3.62.

Q: Which protein stability index does the source give for KLLVVDFTRRLGNMKNGANDVKHH here?
A: Its protein stability index is 1.83.

Q: For KLLVVDITRRLGNMKNGANDVKHH, which protein stability index is on record?
A: The protein stability index was 2.13.
